From the supplement of paper PMC5998384

How the values were obtained:
HeLa Kyoto [1] = assay: solubility in G1/S (NP-40 vs SDS abundance) (log2 ratio); higher = more soluble; settings: cell cycle stage: G1/S
HeLa Kyoto [2] = assay: solubility change mitosis vs G1/S (difference of NP-40 vs SDS log2 ratios) (log2 ratio difference); higher = more soluble in mitosis
HeLa Kyoto [3] = assay: thermal stability score vs G1/S (z-score of summed log2 fold changes over temperatures); higher = more thermally stable than in G1/S
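Throughout, for solubility change mitosis vs G1/S (difference of NP-40 vs SDS log2 ratios): synchronized HeLa Kyoto cells (double thymidine block for G1/S, nocodazole release for mitosis), protein amounts in NP-40 versus SDS lysates quantified by mass spectrometry, three biological replicates.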
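Throughout, for solubility in G1/S (NP-40 vs SDS abundance): HeLa Kyoto cells arrested at G1/S by double thymidine block, proteins quantified by TMT10plex mass spectrometry in mild NP-40 versus SDS extracts, three biological replicates.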
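Throughout, for thermal stability score vs G1/S (z-score of summed log2 fold changes over temperatures): synchronized HeLa Kyoto cells, proteins quantified by TMT10plex mass spectrometry, three biological replicates, mitosis taken 0.5 h after nocodazole release, G1/S directly after double thymidine block.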

Chain of ISG20 (chain, as listed by the source): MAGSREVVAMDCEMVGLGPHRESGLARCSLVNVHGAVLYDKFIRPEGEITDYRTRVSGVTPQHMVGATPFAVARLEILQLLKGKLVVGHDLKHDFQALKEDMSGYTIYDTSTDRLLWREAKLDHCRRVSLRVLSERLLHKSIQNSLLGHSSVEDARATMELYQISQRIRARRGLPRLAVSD
Chain of ARNTL (chain, as listed by the source): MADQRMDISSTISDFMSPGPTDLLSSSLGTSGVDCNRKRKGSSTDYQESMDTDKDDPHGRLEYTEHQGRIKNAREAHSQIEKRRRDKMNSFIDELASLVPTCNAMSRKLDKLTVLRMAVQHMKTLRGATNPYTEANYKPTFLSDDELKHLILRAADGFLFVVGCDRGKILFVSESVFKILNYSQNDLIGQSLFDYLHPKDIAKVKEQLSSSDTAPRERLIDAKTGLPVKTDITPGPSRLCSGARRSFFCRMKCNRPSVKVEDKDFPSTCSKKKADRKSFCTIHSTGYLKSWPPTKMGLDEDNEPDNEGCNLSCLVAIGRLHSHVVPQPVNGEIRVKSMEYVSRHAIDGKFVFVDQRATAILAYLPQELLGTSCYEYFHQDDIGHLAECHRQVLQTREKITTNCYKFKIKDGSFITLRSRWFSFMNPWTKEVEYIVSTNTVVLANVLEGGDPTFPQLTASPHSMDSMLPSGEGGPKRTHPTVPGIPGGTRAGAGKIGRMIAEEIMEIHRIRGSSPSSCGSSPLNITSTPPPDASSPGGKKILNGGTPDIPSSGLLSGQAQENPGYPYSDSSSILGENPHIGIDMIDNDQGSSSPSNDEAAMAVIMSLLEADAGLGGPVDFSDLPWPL
Chain of CLK4 (chain, as listed by the source): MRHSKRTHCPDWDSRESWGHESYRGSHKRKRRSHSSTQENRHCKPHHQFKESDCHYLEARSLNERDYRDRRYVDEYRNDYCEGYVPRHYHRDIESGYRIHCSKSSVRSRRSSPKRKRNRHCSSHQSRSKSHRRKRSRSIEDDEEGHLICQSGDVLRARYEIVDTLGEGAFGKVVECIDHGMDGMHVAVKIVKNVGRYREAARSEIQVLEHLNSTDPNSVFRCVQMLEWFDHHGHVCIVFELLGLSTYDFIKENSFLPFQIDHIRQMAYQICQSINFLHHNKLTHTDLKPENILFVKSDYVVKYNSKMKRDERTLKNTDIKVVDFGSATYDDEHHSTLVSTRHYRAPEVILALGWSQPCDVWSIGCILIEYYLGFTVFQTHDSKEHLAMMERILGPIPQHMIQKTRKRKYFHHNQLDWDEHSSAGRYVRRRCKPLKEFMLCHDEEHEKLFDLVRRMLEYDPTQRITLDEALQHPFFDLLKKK
Chain of EPB41L5 (chain, as listed by the source): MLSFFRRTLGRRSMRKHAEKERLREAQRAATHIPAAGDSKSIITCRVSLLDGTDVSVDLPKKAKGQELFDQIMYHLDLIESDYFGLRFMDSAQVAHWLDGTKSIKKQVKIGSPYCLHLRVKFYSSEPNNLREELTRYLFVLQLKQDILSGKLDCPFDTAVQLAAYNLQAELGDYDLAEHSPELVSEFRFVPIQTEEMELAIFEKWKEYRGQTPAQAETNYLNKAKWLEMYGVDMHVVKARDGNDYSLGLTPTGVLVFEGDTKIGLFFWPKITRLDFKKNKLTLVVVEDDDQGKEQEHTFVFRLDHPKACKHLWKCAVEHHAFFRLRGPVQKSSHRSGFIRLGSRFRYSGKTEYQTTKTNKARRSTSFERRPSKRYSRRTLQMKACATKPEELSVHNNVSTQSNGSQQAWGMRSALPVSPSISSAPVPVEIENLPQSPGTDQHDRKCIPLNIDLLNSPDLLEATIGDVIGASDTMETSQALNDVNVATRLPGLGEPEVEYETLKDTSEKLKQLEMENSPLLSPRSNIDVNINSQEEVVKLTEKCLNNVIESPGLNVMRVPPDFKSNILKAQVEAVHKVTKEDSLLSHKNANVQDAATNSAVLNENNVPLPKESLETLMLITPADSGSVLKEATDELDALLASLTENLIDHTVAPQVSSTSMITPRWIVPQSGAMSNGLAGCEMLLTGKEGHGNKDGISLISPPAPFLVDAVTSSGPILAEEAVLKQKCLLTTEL

Substance | solubility in G1/S (log2) (HeLa Kyoto [1]) | solubility change mitosis (log2) (HeLa Kyoto [2]) | thermal stability score (HeLa Kyoto [3]; cell cycle stage: early G1 (4.5 h after nocodazole release)) | thermal stability score (HeLa Kyoto [3]; cell cycle stage: mitosis)
ANKRD11 | -0.497 | 0.268 |  | 
ARHGEF17 | -0.434 | 0.166 |  | 
ARNTL | -0.0786 | -0.179 |  | 
BRCA1 | -0.318 | 0.246 |  | 
CAPN15 | -0.427 | -0.0119 |  | 
CEP192 | -0.295 | -0.137 |  | 
CEP350 | 0.00287 | 0.0106 |  | 
CHD1 | -2.28 | 0.383 |  | 
CLIC3 | 0.369 | -0.00439 |  | 
CLK4 | -1.44 | 0.508 |  | 
EPB41L5 | -0.503 | 0.268 |  | 
EVPL | -0.382 | 0.319 |  | 
FAM208B | -0.671 | 0.423 |  | 
ICE1 | -0.864 | 0.51 |  | 
ISG20 | 0.28 | -0.182 |  | 
KIAA0368 | 0.0203 | -0.156 |  | 
KMT2C | 0.137 | -0.0115 |  | 
MAAAAAETPEVLRECGCKGIRTCLICERQRGSDPPWELPPAKTYRFIYCSDTGWAVGTEESDFEGWAFPFPGVMLIEDFVTREEEAELVRLMDRDPWKLSQSGRRKQDYGPKVNFRKQKLKTEGFCGLPSFSREVVRRMGLYPGLEGFRPVEQCNLDYCPERGSAIDPHLDDAWLWGERLVSLNLLSPTVLSMCREAPGSLLLCSAPSAAPEALVDSVIAPSRSVLCQEVEVAIPLPARSLLVLTGAARHQWKHAIHRRHIEARRVCVTFRELSAEFGPGGRQQELGQELLRIALSFQGRPV [ALKBH4] | 0.184 | -0.0312 |  | 
MAAALPRTLGELQLYRILQKANLLSYFDAFIQQGGDDVQQLCEAGEEEFLEIMALVGMASKPLHVRRLQKALRDWVTNPGLFNQPLTSLPVSSIPIYKLPEGSPTWLGISCSSYERSSNAREPHLKIPKCAATTCVQSLGQGKSDVVGSLALQSVGESRLWQGHHATESEHSLSPADLGSPASPKESSEALDAAAALSVAECVERMAPTLPKSDLNEVKELLKTNKKLAKMIGHIFEMNDDDPHKEEEIRKYSAIYGRFDSKRKDGKHLTLHELTVNEAAAQLCVKDNALLTRRDELFALARQISREVTYKYTYRTTKSKCGERDELSPKRIKVEDGFPDFQDSVQTLFQQARAKSEELAALSSQQPEKVMAKQMEFLCNQAGYERLQHAERRLSAGLYRQSSEEHSPNGLTSDNSDGQGERPLNLRMPNLQNRQPHHFVVDGELSRLYPSEAKSHSSESLGILKDYPHSAFTLEKKVIKTEPEDSR [NAB1] | 0.187 | 0.105 |  | 
MAAATVGRDTLPEHWSYGVCRDGRVFFINDQLRCTTWLHPRTGEPVNSGHMIRSDLPRGWEEGFTEEGASYFIDHNQQTTAFRHPVTGQFSPENSEFILQEEPNPHMSKQDRNQRPSSMVSETSTAGTASTLEAKPGPKIIKSSSKVHSFGKRDQAIRRNPNVPVVVRGWLHKQDSSGMRLWKRRWFVLADYCLFYYKDSREEAVLGSIPLPSYVISPVAPEDRISRKYSFKAVHTGMRALIYNSSTAGSQAEQSGMRTYYFSADTQEDMNAWVRAMNQAAQVLSRSSLKRDMEKVERQAVPQANHTESCHECGRVGPGHTRDCPHRGHDDIVNFERQEQEGEQYRSQRDPLEGKRDRSKARSPYSPAEEDALFMDLPTGPRGQQAQPQRAEKNGMLPASYGPGEQNGTGGYQRAFPPRTNPEKHSQRKSNLAQVEHWARAQKGDSRSLPLDQTLPRQGPGQSLSFPENYQTLPKSTRHPSGGSSPPPRNLPSDYKYAQDRASHLKMSSEERRAHRDGTVWQLYEWQQRQQFRHGSPTAPICLGSPEFTDQGRSRSMLEVPRSISVPPSPSDIPPPGPPRVFPPRRPHTPAERVTVKPPDQRRSVDISLGDSPRRARGHAVKNSSHVDRRSMPSMGYMTHTVSAPSLHGKSADDTYLQLKKDLEYLDLKMTGRDLLKDRSLKPVKIAESDTDVKLSIFCEQDRVLQDLEDKIRALKENKDQLESVLEVLHRQMEQYRDQPQHLEKIAYQQKLLQEDLVHIRAELSRESTEMENAWNEYLKLENDVEQLKQTLQEQHRRAFFFQEKSQIQKDLWRIEDVTAGLSANKENFRILVESVKNPERKTVPLFPHPPVPSLSTSESKPPPQPSPPTSPVRTPLEVRLFPQLQTYVPYRPHPPQLRKVTSPLQSPTKAKPKVEDEAPPRPPLPELYSPEDQPPAVPPLPREATIIRHTSVRGLKRQSDERKRDRELGQCVNGDSRVELRSYVSEPELATLSGDMAQPSLGLVGPESRYQTLPGRGLSGSTSRLQQSSTIAPYVTLRRGLNAESSKATFPRPKSALERLYSGDHQRGKMSAEEQLERMKRHQKALVRERKRTLGQGERTGLPSSRYLSRPLPGDLGSVC [PLEKHA7] | -0.548 | 0.454 |  | 
MAAELVEAKNMVMSFRVSDLQMLLGFVGRSKSGLKHELVTRALQLVQFDCSPELFKKIKELYETRYAKKNSEPAPQPHRPLDPLTMHSTYDRAGAVPRTPLAGPNIDYPVLYGKYLNGLGRLPAKTLKPEVRLVKLPFFNMLDELLKPTELVPQNNEKLQESPCIFALTPRQVELIRNSRELQPGVKAVQVVLRICYSDTSCPQEDQYPPNIAVKVNHSYCSVPGYYPSNKPGVEPKRPCRPINLTHLMYLSSATNRITVTWGNYGKSYSVALYLVRQLTSSELLQRLKTIGVKHPELCKALVKEKLRLDPDSEIATTGVRVSLICPLVKMRLSVPCRAETCAHLQCFDAVFYLQMNEKKPTWMCPVCDKPAPYDQLIIDGLLSKILSECEDADEIEYLVDGSWCPIRAEKERSCSPQGAILVLGPSDANGLLPAPSVNGSGALGSTGGGGPVGSMENGKPGADVVDLTLDSSSSSEDEEEEEEEEEDEDEEGPRPKRRCPFQKGLVPAC [PIAS4] | 0.228 | -0.116 |  | 
MAAGSDLLDEVFFNSEVDEKVVSDLVGSLESQLAASAAHHHHLAPRTPEVRAAAAGALGNHVVSGSPAGAAGAGPAAPAEGAPGAAPEPPPAGRARPGGGGPQRPGPPSPRRPLVPAGPAPPAAKLRPPPEGSAGSCAPVPAAAAVAAGPEPAPAGPAKPAGPAALAARAGPGPGPGPGPGPGPGPGKPAGPGAAQTLNGSAALLNSHHAAAPAVSLVNNGPAALLPLPKPAAPGTVIQTPPFVGAAAPPAPAAPSPPAAPAPAAPAAAPPPPPPAPATLARPPGHPAGPPTAAPAVPPPAAAQNGGSAGAAPAPAPAAGGPAGVSGQPGPGAAAAAPAPGVKAESPKRVVQAAPPAAQTLAASGPASTAASMVIGPTMQGALPSPAAVPPPAPGTPTGLPKGAAGAVTQSLSRTPTATTSGIRATLTPTVLAPRLPQPPQNPTNIQNFQLPPGMVLVRSENGQLLMIPQQALAQMQAQAHAQPQTTMAPRPATPTSAPPVQISTVQAPGTPIIARQVTPTTIIKQVSQAQTTVQPSATLQRSPGVQPQLVLGGAAQTASLGTATAVQTGTPQRTVPGATTTSSAATETMENVKKCKNFLSTLIKLASSGKQSTETAANVKELVQNLLDGKIEAEDFTSRLYRELNSSPQPYLVPFLKRSLPALRQLTPDSAAFIQQSQQQPPPPTSQATTALTAVVLSSSVQRTAGKTAATVTSALQPPVLSLTQPTQVGVGKQGQPTPLVIQQPPKPGALIRPPQVTLTQTPMVALRQPHNRIMLTTPQQIQLNPLQPVPVVKPAVLPGTKALSAVSAQAAAAQKNKLKEPGGGSFRDDDDINDVASMAGVNLSEESARILATNSELVGTLTRSCKDETFLLQAPLQRRILEIGKKHGITELHPDVVSYVSHATQQRLQNLVEKISETAQQKNFSYKDDDRYEQASDVRAQLKFFEQLDQIEKQRKDEQEREILMRAAKSRSRQEDPEQLRLKQKAKEMQQQELAQMRQRDANLTALAAIGPRKKRKVDCPGPGSGAEGSGPGSVVPGSSGVGTPRQFTRQRITRVNLRDLIFCLENERETSHSLLLYKAFLK [TAF4] | 0.132 | 0.0124 |  | 
MAALAEEQTEVAVKLEPEGPPTLLPPQAGDGAGEGSGGTTNNGPNGGGGNVAASSSTGGDGGTPKPTVAVSAAAPAGAAPVPAAAPDAGAPHDRQTLLAVLQFLRQSKLREAEEALRREAGLLEEAVAGSGAPGEVDSAGAEVTSALLSRVTASAPGPAAPDPPGTGASGATVVSGSASGPAAPGKVGSVAVEDQPDVSAVLSAYNQQGDPTMYEEYYSGLKHFIECSLDCHRAELSQLFYPLFVHMYLELVYNQHENEAKSFFEKFHGDQECYYQDDLRVLSSLTKKEHMKGNETMLDFRTSKFVLRISRDSYQLLKRHLQEKQNNQIWNIVQEHLYIDIFDGMPRSKQQIDAMVGSLAGEAKREANKSKVFFGLLKEPEIEVPLDDEDEEGENEEGKPKKKKPKKDSIGSKSKKQDPNAPPQNRIPLPELKDSDKLDKIMNMKETTKRVRLGPDCLPSICFYTFLNAYQGLTAVDVTDDSSLIAGGFADSTVRVWSVTPKKLRSVKQASDLSLIDKESDDVLERIMDEKTASELKILYGHSGPVYGASFSPDRNYLLSSSEDGTVRLWSLQTFTCLVGYKGHNYPVWDTQFSPYGYYFVSGGHDRVARLWATDHYQPLRIFAGHLADVNCTRFHPNSNYVATGSADRTVRLWDVLNGNCVRIFTGHKGPIHSLTFSPNGRFLATGATDGRVLLWDIGHGLMVGELKGHTDTVCSLRFSRDGEILASGSMDNTVRLWDAIKAFEDLETDDFTTATGHINLPENSQELLLGTYMTKSTPVVHLHFTRRNLVLAAGAYSPQ [TAF5] | -0.0963 | 0.00763 |  | 
MAALGHLAGEAAAAPGPGTPCASRGARLPGPVSSARNPSTVCLCPEQPTCSNADSRAHPLGDEGGTASKKQKNKKKTRNRASVANGGEKASEKLAPEEVPLSAEAQAQQLAQELAWCVEQLELGLKRQKPTPKQKEQAIGAIRTLRSKRTPLPRKRQLMHSLFGDYRAQMEAEWREALRALRAAAYSAQVQPVDGATRKKSQRVCRPRSIWRAKATLDMPDEEFRFNFF [C8ORF33] | 0.306 | 0.747 |  | 
MAAPRWSASGPWIRGNGQGCGSLFTLVSKPFCAAAAASTAINAQRLAEKLRAQKREQDTKKEPVSTNAVQRRVQEIVRFTRQLQRVHPNVLAKALTRGILHQDKNLVVINKPYGLPVHGGPGVQLCITDVLPILAKMLHGHKAEPLHLCHRLDKETTGVMVLAWDKDMAHQVQELFRTRQVVKKYWAITVHVPMPSAGVVDIPIVEKEAQGQQQHHKMTLSPSYRMDDGKMVKVRRSRNAQVAVTQYQVLSSTLSSALVELQPITGIKHQLRVHLSFGLDCPILGDHKYSDWNRLAPQKLSVGTLKKLGLEQSKARYIPLHLHARQLILPALGSGKEELNLVCKLPRFFVHSLHRLRLEMPNEDQNENNEAKCLGAQ [RPUSD4] | -0.22 | 0.0788 |  | 
MWSAGRGGAAWPVLLGLLLALLVPGGGAAKTGAELVTCGSVLKLLNTHHRVRLHSHDIKYGSGSGQQSVTGVEASDDANSYWRIRGGSEGGCPRGSPVRCGQAVRLTHVLTGKNLHTHHFPSPLSNNQEVSAFGEDGEGDDLDLWTVRCSGQHWEREAAVRFQHVGTSVFLSVTGEQYGSPIRGQHEVHGMPSANTHNTWKAMEGIFIKPSVEPSAGHDEL [SDF2L1] |  | -0.0974 | 4.06 | 1.19
